According to patent US12624096B2, “Anti-tau antibodies and methods of use thereof” (GTInvent Limited, priority 2020, dated 2026):
Entries after “also recorded” stand apart in the source; their conditions may differ.

How the values were obtained:
human tau and mouse tau = experiment: Western blot of WT, L66+/+ and L1+/+ mouse brain homogenates; format: binding; settings: 20 μg protein, 5-month-old mice
Method: Protein equivalent to 20 μg from each brain extract was separated using 4-20% bis-tris gels and run in 1×MES buffer.
A band is detected in each sample (WT, L66^+/+ and L1^+/+) with an apparent molecular weight of approximately 55 kDa. This band most likely corresponds to endogenous mouse tau which is of a similar size. In the L66^+/+ samples, a second band running at approximately 68 kDa is also detected. The presence of numerous other bands indicates proteolytic truncation of tau within brain homogenates.

dGA = dGA (Homo sapiens, UniProt P10636); experiment: Biacore X100 SPR, scAb captured via anti-HuCk, dGA as analyte; format: binding; settings: dissociation rate
Method: Surface plasmon resonance (SPR) is widely regarded as the gold standard for real time measurement of protein-protein interactions such as antibody binding. All SPR experiments were carried out using a Biacore X100 machine and HBS EP+ running buffer (GE Healthcare). A ‘capture’ method was followed for affinity measurements, where an anti-human constant kappa chain (HuCk) antibody was conjugated to the surface of a CM5 sensor chip using an amine coupling kit and scAb molecules were immobilised via their HuCk domain. Amine coupling is a very common approach for immobilising the ligand to the chip surface. The chip surface has a dextran matrix derivatised with carboxyl groups, which after activation with N-hydroxysuccinimide (NHS) and 1-ethyl-3-(3-dimethylaminopropyl) carbodiimide (EDC), form reactive succinimide esters which allows the covalent capturing of the ligand via any available primary amine groups (e.g. Lysine) on the ligand (in this case anti-HuCk antibody). The capture antibody was diluted 1/100 in 10 mM Sodium acetate buffer pH 5.0 and passed over the activated chip surface for a period of at least 420 s. Final ligand immobilisation levels over 12,000 RU were deemed to be satisfactory.
Following immobilisation, the level of each scAb to be captured was identified using the standard SPR equation with a theoretical RMax of 100 RU. Analyte MW refers to the molecular weight of hT40 or dGA/dGAE molecules, while ligand MW refers to the molecular weight of the scAbs tested. RL is the desired capture level and S refers to the stoichiometric ratio:
The scAb to be tested was added only to flow cell 2 so that flow cell 1 could act as a control to subtract any interaction with the analyte and the chip surface. Both single and multi-cycle runs were utilised using wizards developed in the Biacore X100 control software which are both accepted methods of kinetic analysis (Karlsson, R., et al. Analyzing a kinetic titration series using affinity biosensors (2006) Analytical Biochemistry 349:136-47). The multi-cycle protocol was as follows-Three start-up cycles composed of an initial capture, to the desired level, of the scAb to be tested was performed followed by a 30 s injection of glycine buffer pH 2.0 after each cycle to regenerate the chip surface. The regeneration step removed any captured scAb whilst leaving the capture antibody intact and able to repeat the capture for the next cycle. Following three start-up cycles increasing concentrations (0.15625 nM-100 nM) of the target to be tested were added to the chip surface after the desired scAb capture. The target was added for a 120 s association period and 420 s dissociation period followed by another regeneration, 30 s injection of glycine buffer pH 2.0 in between each cycle.
The single cycle kinetics protocol was similar and utilised the same level of scAb capture. Three start-up cycles were used followed by 5 increasing concentrations of the analyte (6.25 nM-100 nM) for an association period of 120 s followed by a dissociation period of 420 s for each concentration. In single cycle kinetics the regeneration step was performed only after the final analyte concentration was added. Binding responses were analysed in Biacore X100 evaluation software and data fitted to a 1:1 binding model to obtain kinetic and affinity characterisation.

htau40 = htau40 (Homo sapiens, UniProt P10636); experiment: Biacore X100 SPR of anti-tau mAbs on immobilised htau40; format: binding; settings: mAb, Table 27, immobilised hT40
How it was run: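 htau40 amine-coupled to a CM5 chip (~250 RU); mAb injected at 0.78–25 nM in HBS-EP+ at 30 μL/min, 120 s association, 600 s dissociation, glycine pH 1.5 regeneration. Kinetics and affinity from 1:1 binding fit with reference-cell subtraction.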

[1] = tested on: alanine substituted 13mer tau peptides; experiment: Alanine scanning mutagenesis (ASM) peptide ELISA; format: binding, human; settings: numbering according to SEQ ID NO: 1; description text 'may be'
Method: To further elucidate epitopes of the scAb panel, and identify the critical amino acids needed for binding, alanine scanning mutagenesis of the parent 13 aa peptides for scAbs CE2, S1D12, CA4 and S1G2 was performed. […] Briefly, 5 μg/ml streptavidin (Thermo Fisher) was adsorbed to Nunc 96-well MaxiSorp plates and following incubation at 37° C., for 1 h, the plates were washed as normal and blocked with 2% MPBS. N-terminally biotinylated peptides (Prolmmune Ltd) were added to the plates and incubated for 1 h at 37° C. Subsequently, test scAbs at starting concentrations of 100-500 nM was added and double diluted across the plate for each peptide and incubated for 1 h at 37° C. Rest of the ELISA was conducted as described above and the plates were read at absorbance 450 nm. Immunoreactivity of the scAb of interest was quantified as the % of scAb was bound for each peptide at a chosen concentration (FIG. 15-20).

Sequence of htau40 (P10636 1-441 isoform P10636-8): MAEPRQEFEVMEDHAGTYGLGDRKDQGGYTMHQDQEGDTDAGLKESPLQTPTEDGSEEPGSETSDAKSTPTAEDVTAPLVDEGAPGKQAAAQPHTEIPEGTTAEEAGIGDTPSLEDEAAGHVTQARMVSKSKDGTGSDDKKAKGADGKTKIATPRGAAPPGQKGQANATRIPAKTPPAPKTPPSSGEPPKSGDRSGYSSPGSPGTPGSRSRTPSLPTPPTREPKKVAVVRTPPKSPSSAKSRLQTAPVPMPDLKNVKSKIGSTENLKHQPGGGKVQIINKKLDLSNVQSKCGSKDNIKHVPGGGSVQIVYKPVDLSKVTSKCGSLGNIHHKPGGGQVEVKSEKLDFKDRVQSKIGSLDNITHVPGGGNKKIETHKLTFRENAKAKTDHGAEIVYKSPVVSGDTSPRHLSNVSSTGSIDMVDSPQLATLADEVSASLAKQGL
Sequence of dGA (P10636 614-707): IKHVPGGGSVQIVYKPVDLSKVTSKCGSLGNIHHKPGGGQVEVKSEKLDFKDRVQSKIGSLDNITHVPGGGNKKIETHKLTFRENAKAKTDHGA

B1: S1G2: anti-tau clone, SEQ ID NO: 81 (protein)
scFv: QVQLQESGPSLVKPSQTLSLTCTVSGFSLTSNSVGWVRQAPGKAPEWVAGIDTDGEEGYNPALNSRLSITRDTSKSQVSLSLSSVTSEDTAVYYCGRSYRADGLAYGYVQAIDYWGPGLLVTVSSEGKSSGASGESKVDDQAVVTQPSSVSGSLGQRVSITCSGSFIGISSVGWFQQLPGSGLRTIIVASDGRPSGVPDRFSMSKSGNTATLTISSLQAEDEADYFCGSSDRTPYTGVFGSGTRLTVLG
modifications: S1G2 amino acid sequence
bands detected in western blot of WT, L66+/+ and L1+/+ brain homogenates (human tau and mouse tau): numerous bands visible in each mouse sample; also recorded: able to detect the pathologic 10-kDa tau fragment
Kd (dGA): 0.0003499 s⁻¹
ka (htau40): 339800 M⁻¹ s⁻¹
kd (htau40): 4.748e-05 s⁻¹
Critical residues of the epitope [1]: 370 (K) and/or 374 (H)

B2: S1D12: anti-tau clone from immunised sheep, SEQ ID NO: 32 (protein)
scFv: QVQLQESGPSLVKPSQTLSLTCTVSGFSLNNNAVGWVRQAPGKVPESLVGCSSDGTCYYNSALKSRLDITRDTSKNQISLSLSSVTTDDAAVYYCTRGHYSIYGYDYLGTIDYWGPGLLVTVSSEGKSSGASGESKVDDQAVLTQPSSVSGSLGQRVSITCSGSSSNVGGGNSVGWYQHLPGSGLKTIIYDTNSRPSGVPDRFSGSRSGNTATLTINSLQAEDEGDYYCVTGDSTTHDDLVGSGTRLTVLG
modifications: S1D12 amino acid sequence
bands detected in western blot of WT, L66+/+ and L1+/+ brain homogenates (human tau and mouse tau): numerous bands visible in each mouse sample
Kd (dGA): 0.000418 s⁻¹
ka (htau40): 405800 M⁻¹ s⁻¹
kd (htau40): 4.093e-05 s⁻¹
Critical residues of the epitope [1]: 343 (K), 346 (F) and/or 349 (R)
